Experimental data taken from article PMC7294096.
“And” between values parts separate entries of the source, which are not always exact repeats. Identical values can stand only once.

Biological target: DnaJ heat shock protein family (Hsp40) member B6 (DNAJB6), wild type (human) (UniProt O75190)
Experiment: native MS; 37 μM DNAJB6 (plain or BS3-crosslinked) with 1 μM Aβ(1–40), 10 mM ammonium acetate pH 7; direct detection of DNAJB6 signals and complexes

Chain of DnaJ heat shock protein family (Hsp40) member B6 (DNAJB6), wild type, O75190-2 1-241 (natural protein; other documents disagree on this pair) (O75190 other isoform, or with tags, fused parts or gaps): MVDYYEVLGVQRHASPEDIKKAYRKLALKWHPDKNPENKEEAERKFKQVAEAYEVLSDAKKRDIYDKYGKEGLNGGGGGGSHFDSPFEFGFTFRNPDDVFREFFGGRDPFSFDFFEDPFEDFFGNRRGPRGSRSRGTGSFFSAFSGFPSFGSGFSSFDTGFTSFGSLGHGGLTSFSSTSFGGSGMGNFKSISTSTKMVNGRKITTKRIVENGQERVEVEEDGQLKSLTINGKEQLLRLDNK

- stoichiometry N: 2 and 3
Substance: DnaJ heat shock protein family (Hsp40) member B6 (DNAJB6), wild type, O75190-2 1-241 (natural protein; other documents disagree on this pair)
